From PMC4191419, “SSX2 is a novel DNA-binding protein that antagonizes polycomb group body formation and gene repression”

Biological target: SSX2 (rSSX2) (UniProt Q16385 1-188)
Assay: MST; Hill coefficient 3.0; 50 nM DNA; EMSA: 20 mM Tris-HCl pH 7.4, 50 mM NaCl, 1 mM DTT (complexes stable at 75 mM, dissolved at 250 mM NaCl; fragment used not stated); MST: 20 mM Tris-HCl pH 7.4, NaCl printed as 50 nM (probably 50 mM), 0.05% NP40, ambient temperature, 2 h
Settings: protein: recombinant

SSX2 (rSSX2), sequence (Q16385 whole entry, the tested form may be a part): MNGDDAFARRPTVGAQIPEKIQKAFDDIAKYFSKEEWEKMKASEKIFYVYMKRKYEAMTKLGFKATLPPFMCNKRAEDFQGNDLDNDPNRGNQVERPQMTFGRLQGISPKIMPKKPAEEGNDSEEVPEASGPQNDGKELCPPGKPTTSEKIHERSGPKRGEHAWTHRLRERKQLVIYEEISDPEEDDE

B1: Cy5 random 30-nt dsDNA (dsDNA)
DNA 1: CGTCTATACTTTCACAATGTTGACCTGCAC
DNA 2: GTGCAGGTCAACATTGTGAAAGTATAGACG
Kd: 1800 ± 200 nM
